Measurements: US20030211470A1

What was measured:
[1] = target: HIV-1IIIB gp120/gp41 stably expressed on CHO cells (HIV-1 IIIB); assay: cell-based or functional assay
[2] = target: recombinant gp120 from the laboratory-adapted strain HIV-1LAI (HIV-1 LAI) (UniProt P03377); assay: modified ELISA; gp120 captured on plate, CD4-IgG2 titrated, 1 h at 37 C, 50% of maximal binding
[3] = target: recombinant gp120 from the primary isolate HIV-1JR-FL (HIV-1 JR-FL) (UniProt P20871); assay: as above

Row | Substance | IC50 (nM), syncytium inhibition [1] [nM] | IC50 (µg/ml), syncytium inhibition [1] [µg/mL] | Relative Potency (mass), relative to sCD4 [1] [fold] | Relative Potency (molarity), relative to sCD4 [1] [fold] | EC50 [2] [nM] | EC50 [3] [nM]
1 | CD4-IgG2 chimeric heterotetramer (Fc fusion) | 9 | 1.81 | 5.1 | 22.2 | 1.25 | 0.64
2 | CD4-gamma2 chimeric heavy chain homodimer (Fc fusion) | 40 | 4.03 | – | – | – | –
